Experiments:
[1] = target: MarR protein from Paenisporosarcina sp. TG-14 (Paenisporosarcina sp. TG-14); assay: AUC; analytical ultracentrifugation at 40 000 rev/min, 20°C, detection at 280 nm, analysed with SEDFIT; one peak at a sedimentation coefficient of about 2.5 (31.3 kDa)
PaMarR [2] = target: T1, PaMarR (Paenisporosarcina sp. TG-14, UniProt A0A8J9SKQ8); assay: X-ray crystal structure; format: binding; settings: 1.6 A; co-purified from expression culture, not added; identity assigned from electron density; deep cavity in dimerization domain (helices a1, a6, a7), putative effector site; ammonium citrate pH 7.0
T1 construct: gene E2636_00495; N-terminal His6 tag (pET-28a(+), NdeI/XhoI) removed with thrombin; E. coli BL21(DE3); gene primer start TTGGATAAGAGAATAC (N-terminus M/L-DKRI)

PaMarR [3] = target: T2, PaMarR (Paenisporosarcina sp. TG-14, UniProt A0A8J9SKQ8 1-147); assay: EMSA; 0.3-2.1 uM PaMarR, 0.5 uM duplex; B1 (one site) at low, B2 (both sites) at high protein; protein contains palmitate; EMSA: Dulbecco's PBS, 12% (v/v) glycerol, 0.5 uM duplex, 15 min at 37 C, 20 ul; 8% native PAGE with 5% glycerol in Tris-borate; pH not stated; settings: protein: recombinant; tags: N-terminal His6 (pET-28a NdeI/XhoI), removed with thrombin; chain copies: 2; label: none (GelRed stain); as printed: 52 bp duplex, 3' overhang 13 nt on strand 1 (second strand may be printed incompletely; Methods say complementary oligos)
T2 sequence: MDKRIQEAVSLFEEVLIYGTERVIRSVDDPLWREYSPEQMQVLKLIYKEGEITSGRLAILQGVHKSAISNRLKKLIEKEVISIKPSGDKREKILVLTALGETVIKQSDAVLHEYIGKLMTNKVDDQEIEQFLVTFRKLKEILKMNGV

MarR protein from Paenisporosarcina sp. TG-14 (natural protein)
stoichiometry N [1]: 2

CCCCCCCCCCCCCCCC(=O)O [palmitic acid]
X-ray crystal structure (PaMarR [2]): a model of palmitic acid containing a 16-carbon chain was built, which had the best fit

B1: Palindrome probe (putative binding sites 1 and 2) (dsDNA)
DNA 1: TTTTAATAGTTCACCCCCTAAACTAACGTTATTGGTTTAGGGGGTGAACTATTATGCCCCCCATA
DNA 2: ATAGTTCACCCCCTAAACCAATAACGTTAGTTTAGGGGGTGAACTATTAAAA
binding result (PaMarR [3]): binds
